From patent US20140087995A1 (published 2014) come the findings set out here.

Where two headings read alike, the source gives them in different places. Numbered stars: 1 amine (or outer) side, 2 acyl side, 3 side chain; on linkers, the order of the positions; unused ones are H or OH. Bridge positions count the residues as written; N and C are the ends. Side chains are listed from the residue outwards. Ends that are not written are not given here. * marks the point of attachment. C20 diacid = O=C(O)CCCCCCCCCCCCCCCCCCC(=O)*; γGlu = O=C(O)[C@H](CCC(=O)[*:2])N[*:1]; AEEA = NCCOCCOCC(=O)O

Test [1] has as its target T1, human amylin receptor (amylin 3(a) receptor: human calcitonin receptor plus RAMP-3) (human, UniProt P30988 25-474; O60896 24-148).
T1 sequence (looked up) 1: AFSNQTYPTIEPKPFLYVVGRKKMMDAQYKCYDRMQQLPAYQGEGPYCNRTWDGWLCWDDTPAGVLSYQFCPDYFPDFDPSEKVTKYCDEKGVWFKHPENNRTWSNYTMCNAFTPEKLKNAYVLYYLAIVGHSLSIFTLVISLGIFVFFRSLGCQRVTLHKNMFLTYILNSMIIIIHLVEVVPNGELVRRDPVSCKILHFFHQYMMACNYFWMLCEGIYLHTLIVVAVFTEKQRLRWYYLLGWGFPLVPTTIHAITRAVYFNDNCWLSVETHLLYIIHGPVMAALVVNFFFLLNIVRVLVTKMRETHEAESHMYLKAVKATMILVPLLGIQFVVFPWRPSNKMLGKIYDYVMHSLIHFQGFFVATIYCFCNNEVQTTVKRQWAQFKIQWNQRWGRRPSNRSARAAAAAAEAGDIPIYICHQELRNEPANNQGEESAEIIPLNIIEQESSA
T1 sequence (looked up) 2: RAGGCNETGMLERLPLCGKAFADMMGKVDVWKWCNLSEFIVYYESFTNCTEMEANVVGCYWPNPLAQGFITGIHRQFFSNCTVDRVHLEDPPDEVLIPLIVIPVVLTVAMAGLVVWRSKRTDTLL
Put plainly: cell-based or functional assay.

Test [2] addresses T2, human calcitonin receptor (human, UniProt P30988 25-474).
T2 sequence (looked up): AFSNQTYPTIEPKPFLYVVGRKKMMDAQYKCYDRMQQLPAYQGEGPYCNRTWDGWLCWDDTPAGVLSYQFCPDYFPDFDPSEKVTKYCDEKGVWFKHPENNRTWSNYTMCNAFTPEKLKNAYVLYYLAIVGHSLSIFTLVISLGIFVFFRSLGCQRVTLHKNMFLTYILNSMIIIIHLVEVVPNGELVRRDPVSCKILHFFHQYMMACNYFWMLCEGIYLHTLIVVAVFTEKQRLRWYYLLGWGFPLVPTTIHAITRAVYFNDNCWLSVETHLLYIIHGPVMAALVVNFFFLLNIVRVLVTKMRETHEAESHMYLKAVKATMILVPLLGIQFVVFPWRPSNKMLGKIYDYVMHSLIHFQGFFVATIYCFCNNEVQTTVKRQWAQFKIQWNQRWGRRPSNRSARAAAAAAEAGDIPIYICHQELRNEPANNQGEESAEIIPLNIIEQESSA
The test can be described thus: cell-based or functional assay.

The target of test [3] is T1, human amylin receptor (amylin 3(a) …). Put plainly: cell-based or functional assay. This is another data set of the same source.
Test [4] has as its target T2, human calcitonin receptor. The test can be described thus: cell-based or functional assay. This is another data set of the same source.
In test [5] the target is T1, human amylin receptor (amylin 3(a) …). The test can be described thus: SPA competition, displacement of 125I-rat amylin from membranes of BHK cells with human calcitonin receptor + RAMP-3 (Assay V). Here is the method:
(§1) The binding assay was performed using scintillation proximity assay (SPA) beads (RPNQ0001) from PerkinElmer and cell membranes from the Amylin 3(a)/CRE-luc cells (as described in Assay (II)) were used. Membranes were prepared in the following way; the cells were rinsed with PBS and incubated with Versene for approximately 5 min before harvesting. The cells were flushed with PBS and the cell-suspension was centrifuged for 5 min at 1000 rpm. Cells were homogenized (ultrathurrax) in a buffer containing 20 mM Na-HEPES and 10 mM EDTA (pH 7.4) and centrifuged at 20.000 rpm for 15 min. The resulting pellet was resuspended, homogenized and centrifuged (20.000 rpm, 15 min) in a buffer containing 20 mM Na-HEPES and 0.1 mM EDTA (pH 7.4, buffer 2). The resulting pellet was resuspended in buffer 2 and protein concentration was measured (BCA protein Assay, Pierce). The homogenate was kept cold during the whole procedure. The membranes were kept at −80° C. until use. The assay was performed in a 384 well Optiplate (PerkinElmer) in a total volume of 40 ul. Membranes were mixed with SPA beads. Final concentration of membranes 35 ng/μL final and SPA beads was 0.05 mg/well. Test-compounds were dissolved in DMSO and further diluted in assay buffer (50 mM Hepes, pH 7.4, 1 mM CaCl2, 5 mM MgCl₂, 0.1% OA and 0.02% Tween20). […] The final mixture was incubated with shaking at 400 rpm for 120 min at 25° C. prior to centrifugation (1500 rpm, 10 min). Samples were analyzed on TopCounter™ (Packard). The IC₅₀ was calculated using (one site binding competition analysis) GraphPad Prism5 as a measure of receptor affinity.

For test [6] the target is unchanged. The description is as above. Here is the method:
as §1
The source holds these as a separate data set.

B1: N^ε1-[(4S)-4-carboxy-4-(19-carboxynonadecanoylamino)butanoyl]-[Glu14,Arg17,Pro21,Pro27,His35]-h-amylin (peptide)
peptide: K([γGlu-C20 diacid])CNTATCATQRLAEFLRHSSPNFGAIPSSTNVGSHTY-NH2
modifications: disulfide 2-7; N-terminus assumed
SMILES: CC[C@H](C)[C@H](NC(=O)[C@H](C)NC(=O)CNC(=O)[C@H](Cc1ccccc1)NC(=O)[C@H](CC(N)=O)NC(=O)[C@@H]1CCCN1C(=O)[C@H](CO)NC(=O)[C@H](CO)NC(=O)[C@H](Cc1c[nH]cn1)NC(=O)[C@H](CCCNC(=N)N)NC(=O)[C@H](CC(C)C)NC(=O)[C@H](Cc1ccccc1)NC(=O)[C@H](CCC(=O)O)NC(=O)[C@H](C)NC(=O)[C@H](CC(C)C)NC(=O)[C@H](CCCNC(=N)N)NC(=O)[C@H](CCC(N)=O)NC(=O)[C@@H](NC(=O)[C@H](C)NC(=O)[C@@H]1CSSC[C@H](NC(=O)[C@@H](N)CCCCNC(=O)CC[C@H](NC(=O)CCCCCCCCCCCCCCCCCCC(=O)O)C(=O)O)C(=O)N[C@@H](CC(N)=O)C(=O)N[C@@H]([C@@H](C)O)C(=O)N[C@@H](C)C(=O)N[C@@H]([C@@H](C)O)C(=O)N1)[C@@H](C)O)C(=O)N1CCC[C@H]1C(=O)N[C@@H](CO)C(=O)N[C@@H](CO)C(=O)N[C@H](C(=O)N[C@@H](CC(N)=O)C(=O)N[C@H](C(=O)NCC(=O)N[C@@H](CO)C(=O)N[C@@H](Cc1c[nH]cn1)C(=O)N[C@H](C(=O)N[C@@H](Cc1ccc(O)cc1)C(N)=O)[C@@H](C)O)C(C)C)[C@@H](C)O
In the case of B1, the “hAmylin-R funct. EC50 (pM)” value in test [1] and in test [3] was 425 pM in each case. For the same molecule, the “hCTR funct. EC50 (pM)” value in test [2] and in test [4] was 5580 pM throughout. Also, the IC50 in test [5] and in test [6] was 0.992 nM throughout.

B2: N^ε1-[(4S)-4-carboxy-4-[[(4S)-4-carboxy-4-(19-carboxynonadecanoylamino)butanoyl]amino]butanoyl]-[Glu14,Arg17,Pro21,Pro27,Pro34,His35]-h-amylin (peptide)
peptide: K([γGlu-γGlu-C20 diacid])CNTATCATQRLAEFLRHSSPNFGAIPSSTNVGPHTY-NH2
modifications: disulfide 2-7 (inferred)
Take B2: the “hAmylin-R funct. EC50 (pM)” value in test [1] and in test [3] was 172 pM throughout. In addition, the “hCTR funct. EC50 (pM)” value in test [2] and in test [4] was 2830 pM each time. In addition, the IC50 in test [5] and in test [6] was 0.377 nM each time.

B3: N^ε-[2-[2-[2-[[(4S)-4-carboxy-4-(19-carboxynonadecanoylamino)butanoyl]amino]ethoxy]ethoxy]acetyl]Lys[Arg1,Arg17,Pro21,Pro27,His35]-h-amylin (peptide)
peptide: K([AEEA-γGlu-C20 diacid])RCNTATCATQRLANFLRHSSPNFGAIPSSTNVGSHTY-NH2
modifications: disulfide 3-8; N-terminus assumed
SMILES: CC[C@H](C)[C@H](NC(=O)[C@H](C)NC(=O)CNC(=O)[C@H](Cc1ccccc1)NC(=O)[C@H](CC(N)=O)NC(=O)[C@@H]1CCCN1C(=O)[C@H](CO)NC(=O)[C@H](CO)NC(=O)[C@H](Cc1c[nH]cn1)NC(=O)[C@H](CCCNC(=N)N)NC(=O)[C@H](CC(C)C)NC(=O)[C@H](Cc1ccccc1)NC(=O)[C@H](CC(N)=O)NC(=O)[C@H](C)NC(=O)[C@H](CC(C)C)NC(=O)[C@H](CCCNC(=N)N)NC(=O)[C@H](CCC(N)=O)NC(=O)[C@@H](NC(=O)[C@H](C)NC(=O)[C@@H]1CSSC[C@H](NC(=O)[C@H](CCCNC(=N)N)NC(=O)[C@@H](N)CCCCNC(=O)COCCOCCNC(=O)CC[C@H](NC(=O)CCCCCCCCCCCCCCCCCCC(=O)O)C(=O)O)C(=O)N[C@@H](CC(N)=O)C(=O)N[C@@H]([C@@H](C)O)C(=O)N[C@@H](C)C(=O)N[C@@H]([C@@H](C)O)C(=O)N1)[C@@H](C)O)C(=O)N1CCC[C@H]1C(=O)N[C@@H](CO)C(=O)N[C@@H](CO)C(=O)N[C@H](C(=O)N[C@@H](CC(N)=O)C(=O)N[C@H](C(=O)NCC(=O)N[C@@H](CO)C(=O)N[C@@H](Cc1c[nH]cn1)C(=O)N[C@H](C(=O)N[C@@H](Cc1ccc(O)cc1)C(N)=O)[C@@H](C)O)C(C)C)[C@@H](C)O
notes: N-terminal extension by Lys at position -1; also called compound 45
For B3, the “Ratio hCT/hAmylin funct.” value in test [1] and in test [3] was 17 throughout. The “hAmylin-R funct. EC50 (pM)” value in test [1] and in test [3] was 594 pM throughout. Besides, the “hCTR funct. EC50 (pM)” value in test [2] and in test [4] was 10100 pM throughout. The 50% inhibitory concentration (IC50) in test [5] and in test [6] was 0.552 nM throughout.

B4: N^ε-[(4S)-4-carboxy-4-(19-carboxynonadecanoylamino)butanoyl]Lys[Arg1,Arg17,Pro21,Pro27,His35]-h-amylin (peptide)
peptide: K([γGlu-C20 diacid])RCNTATCATQRLANFLRHSSPNFGAIPSSTNVGSHTY-NH2
modifications: disulfide 3-8; N-terminus assumed
SMILES: CC[C@H](C)[C@H](NC(=O)[C@H](C)NC(=O)CNC(=O)[C@H](Cc1ccccc1)NC(=O)[C@H](CC(N)=O)NC(=O)[C@@H]1CCCN1C(=O)[C@H](CO)NC(=O)[C@H](CO)NC(=O)[C@H](Cc1c[nH]cn1)NC(=O)[C@H](CCCNC(=N)N)NC(=O)[C@H](CC(C)C)NC(=O)[C@H](Cc1ccccc1)NC(=O)[C@H](CC(N)=O)NC(=O)[C@H](C)NC(=O)[C@H](CC(C)C)NC(=O)[C@H](CCCNC(=N)N)NC(=O)[C@H](CCC(N)=O)NC(=O)[C@@H](NC(=O)[C@H](C)NC(=O)[C@@H]1CSSC[C@H](NC(=O)[C@H](CCCNC(=N)N)NC(=O)[C@@H](N)CCCCNC(=O)CC[C@H](NC(=O)CCCCCCCCCCCCCCCCCCC(=O)O)C(=O)O)C(=O)N[C@@H](CC(N)=O)C(=O)N[C@@H]([C@@H](C)O)C(=O)N[C@@H](C)C(=O)N[C@@H]([C@@H](C)O)C(=O)N1)[C@@H](C)O)C(=O)N1CCC[C@H]1C(=O)N[C@@H](CO)C(=O)N[C@@H](CO)C(=O)N[C@H](C(=O)N[C@@H](CC(N)=O)C(=O)N[C@H](C(=O)NCC(=O)N[C@@H](CO)C(=O)N[C@@H](Cc1c[nH]cn1)C(=O)N[C@H](C(=O)N[C@@H](Cc1ccc(O)cc1)C(N)=O)[C@@H](C)O)C(C)C)[C@@H](C)O
notes: N-terminal extension by Lys at position -1; also called compound 44
On to B4, for which the “Ratio hCT/hAmylin funct.” value in test [1] and in test [3] was 24 in each case. Besides, the “hAmylin-R funct. EC50 (pM)” value in test [1] and in test [3] was 198 pM in each case. The “hCTR funct. EC50 (pM)” value in test [2] and in test [4] was 4750 pM each time. The IC50 in test [5] and in test [6] was 0.275 nM throughout.
